Measured values reported in patent publication US20100196266A1.
One block for each binder: values may come before it.

How the values were obtained:
[1] = molecular target: antigen recognised by L243 on canine lymphocytes and canine lymphoma cells (HLA-DR of the dog) (dog); experiment: flow cytometry, dog lymphoma aspirate; none 3.24
[2] = molecular target: antigen recognised by L243 on canine lymphocytes and canine lymphoma cells (HLA-DR of the dog) (dog); experiment: flow cytometry, dog lymphoma aspirate; none 4.48
[3] = molecular target: antigen recognised by L243 on canine lymphocytes and canine lymphoma cells (HLA-DR of the dog) (dog); experiment: flow cytometry, canine lymphoma aspirate 150836; none 3.2
[4] = molecular target: antigen recognised by L243 on canine lymphocytes and canine lymphoma cells (HLA-DR of the dog) (dog); experiment: flow cytometry, canine lymphoma aspirate 150836; none 4.5
[5] = molecular target: human leukocyte antigen-DR (HLA-DR) on human lymphoma and leukemia cell lines and human lymphocytes (human); experiment: indirect flow cytometry, Namalwa cells, FITC-GAM; none 2.91; control antibody
[6] = molecular target: antigen recognised by L243 on canine lymphocytes and canine lymphoma cells (HLA-DR of the dog) (dog); experiment: flow cytometry, dog lymphoma aspirate; none 3.37
[7] = molecular target: antigen recognised by L243 on canine lymphocytes and canine lymphoma cells (HLA-DR of the dog) (dog); experiment: flow cytometry, dog lymphoma aspirate; none 3.85
[8] = molecular target: antigen recognised by L243 on canine lymphocytes and canine lymphoma cells (HLA-DR of the dog) (dog); experiment: flow cytometry, canine lymphoma aspirate 150836; none 3.4
[9] = molecular target: antigen recognised by L243 on canine lymphocytes and canine lymphoma cells (HLA-DR of the dog) (dog); experiment: flow cytometry, canine lymphoma aspirate 150836; none 3.9
[10] = molecular target: human leukocyte antigen-DR (HLA-DR) on human lymphoma and leukemia cell lines and human lymphocytes (human); experiment: indirect FACS, FITC-GAH Fc, Raji cells; none 6.8; control antibody
[11] = molecular target: antigen recognised by L243 on canine lymphocytes and canine lymphoma cells (HLA-DR of the dog) (dog); experiment: flow cytometry, dog lymphoma aspirate; none 3.24; control antibody
[12] = molecular target: antigen recognised by L243 on canine lymphocytes and canine lymphoma cells (HLA-DR of the dog) (dog); experiment: flow cytometry, dog lymphoma aspirate; none 4.48; control antibody
[13] = molecular target: human leukocyte antigen-DR (HLA-DR) on human lymphoma and leukemia cell lines and human lymphocytes (human); experiment: indirect FACS, FITC-GAH Fc, Daudi cells; none 3.1; control antibody
[14] = molecular target: human leukocyte antigen-DR (HLA-DR) on human lymphoma and leukemia cell lines and human lymphocytes (human); experiment: indirect FACS, FITC-GAH Fc, Ramos cells; none 3.1; control antibody
[15] = molecular target: human leukocyte antigen-DR (HLA-DR) on human lymphoma and leukemia cell lines and human lymphocytes (human); experiment: indirect FACS, FITC-GAH Fc, Namalwa cells; none 2.5; control antibody
[16] = molecular target: human leukocyte antigen-DR (HLA-DR) on human lymphoma and leukemia cell lines and human lymphocytes (human); experiment: indirect FACS, FITC-GAH Fc, SU-DHL-6 cells; none 4.6; control antibody
[17] = molecular target: human leukocyte antigen-DR (HLA-DR) on human lymphoma and leukemia cell lines and human lymphocytes (human); experiment: indirect FACS, FITC-GAH Fc, WSU-FSCCL cells; none 2.6; control antibody
[18] = molecular target: human leukocyte antigen-DR (HLA-DR) on human lymphoma and leukemia cell lines and human lymphocytes (human); experiment: indirect flow cytometry, FITC-GAH Fc, RL cells; none 2.4; negative control
[19] = molecular target: antigen recognised by L243 on canine lymphocytes and canine lymphoma cells (HLA-DR of the dog) (dog); experiment: flow cytometry, canine lymphoma aspirate 150836; none 3.2; control antibody
[20] = molecular target: antigen recognised by L243 on canine lymphocytes and canine lymphoma cells (HLA-DR of the dog) (dog); experiment: flow cytometry, canine lymphoma aspirate 150836; none 4.5; control antibody
[21] = molecular target: human leukocyte antigen-DR (HLA-DR) on human lymphoma and leukemia cell lines and human lymphocytes (human); experiment: indirect flow cytometry, FITC-GAH Fc, Raji cells; none 6.9; negative control
[22] = molecular target: human leukocyte antigen-DR (HLA-DR) on human lymphoma and leukemia cell lines and human lymphocytes (human); experiment: indirect flow cytometry, Namalwa cells, FITC-GAH; none 2.52; control antibody
[23] = molecular target: human leukocyte antigen-DR (HLA-DR) on human lymphoma and leukemia cell lines and human lymphocytes (human); experiment: indirect flow cytometry, FITC-GAH Fc, Daudi cells; none 3.2; negative control
[24] = molecular target: human leukocyte antigen-DR (HLA-DR) on human lymphoma and leukemia cell lines and human lymphocytes (human); experiment: indirect flow cytometry, FITC-GAH Fc, Ramos cells; none 3.1; negative control
[25] = molecular target: human leukocyte antigen-DR (HLA-DR) on human lymphoma and leukemia cell lines and human lymphocytes (human); experiment: indirect flow cytometry, FITC-GAH Fc, Namalwa cells; none 2.6; negative control
[26] = molecular target: human leukocyte antigen-DR (HLA-DR) on human lymphoma and leukemia cell lines and human lymphocytes (human); experiment: indirect flow cytometry, FITC-GAH Fc, SU-DHL-6 cells; none 4.6; negative control
[27] = molecular target: human leukocyte antigen-DR (HLA-DR) on human lymphoma and leukemia cell lines and human lymphocytes (human); experiment: indirect flow cytometry, FITC-GAH Fc, WSU-FSCCL cells; none 2.7; negative control

B1: hL243γ4P (humanized L243, IgG4/K isotype with hinge mutation Ser241Pro) (antibody, V domains shown)
VH: QVQLQQSGSELKKPGASVKVSCKASGFTFTNYGMNWVKQAPGQGLKWMGWINTYTREPTYADDFKGRFAFSLDTSVSTAYLQISSLKADDTAVYFCARDITAVVPTGFDYWGQGSLVTVSS
VL: DIQLTQSPSSLSASVGDRVTITCRASENIYSNLAWYRQKPGKAPKLLVFAASNLADGVPSRFSGSGSGTDYTFTISSLQPEDIATYYCQHFWTTPWAFGGGTKLQIKR
mean FL [1]: 5.47
% Positive [2]: 26.3%
mean FL [3]: 5.5
% Positive [4]: 26.2%

B4: hMN-14, labetuzumab (humanized anti-carcinoembryonic antigen IgG1) (antibody, INN chains, looked up, V domains shown)
VH: EVQLVESGGGVVQPGRSLRLSCSASGFDFTTYWMSWVRQAPGKGLEWIGEIHPDSSTINYAPSLKDRFTISRDNAKNTLFLQMDSLRPEDTGVYFCASLYFGFPWFAYWGQGTPVTVSS
VL: DIQLTQSPSSLSASVGDRVTITCKASQDVGTSVAWYQQKPGKAPKLLIYWTSTRHTGVPSRFSGSGSGTDFTFTISSLQPEDIATYYCQQYSLYRSFGQGTKVEIKR
Geometric Mean Fluorescence [10]: 6.96
mean FL [11]: 3.24
% Positive [12]: 4.63%
Geometric Mean Fluorescence [13]: 3.16
Geometric Mean Fluorescence [14]: 3.13
Geometric Mean Fluorescence [15]: 2.36
Geometric Mean Fluorescence [16]: 4.94
Geometric Mean Fluorescence [17]: 2.66
Geometric Mean Fluorescence [18]: 2.8
mean FL [19]: 3.2
% Positive [20]: 4.6%
Geometric Mean Fluorescence [21]: 7
GEO MEAN Fluorescence [22]: 2.49
Geometric Mean Fluorescence [23]: 3.2
Geometric Mean Fluorescence [24]: 3.1
Geometric Mean Fluorescence [25]: 2.4
Geometric Mean Fluorescence [26]: 4.9
Geometric Mean Fluorescence [27]: 2.7

Next, values leading:

GEO MEAN Fluorescence [5]: 3.32
B2: murine MN-14 (anti-carcinoembryonic antigen) (antibody, from a related filing, V domains shown)
VH: EVKLLESGGGLVQSGGSLKLSCAASGFDFTTYWMSWVRQAPGKGLEWIGEIHPDSSTINYAPSLKDKFIVSRDNAKNTLYLQMSKVRSEDTALYYCASLYFGFPWFAYWGQGTPVTVSA
VL: EIQLTQSHKMMSTSVGDRVSITCKASQDVGTSVAWYQQRPGQSPKLLIYWTSTRHTGVPDRFTGSVSGTDFTLTITNVQSEDLADYFCQQYSLYRSFGGGTKLEIK

mean FL [6]: 10.4
% Positive [7]: 77.8%
mean FL [8]: 10.4
% Positive [9]: 77.8%
B3: murine monoclonal antibody L243 (mL243) (antibody, V domains shown)
VH: QIQLVQSGPELKKPGETVKISCKASGFTFTNYGMNWVKQAPGKGLKWMGWINTYTREPTYADDFKGRFAFSLETSASTAYLQINNLKNEDTAKYFCARDITAVVPTGFDYWGQGTTLTVSS
VL: DIQMTQSPASLSVSVGETVTITCRASENIYSNLAWYRQKQGKSPQLLVFAASNLADGVPSRFSGSGSGTQYSLKINSLQSEDFGDYYCQHFWTTPWAFGGGTNLEIKR
